Tested on: MS2 coat protein
Assay: apparent KD of MS2 coat protein; designed switch direction (-1 OFF switch, 1 ON switch): 1; higher = weaker reporter binding
Procedure, shortened: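 An oligonucleotide input, 200 uM small-molecule ligand, or no input was present during titration of SNAP-549-labelled MS2 coat protein, which was doubled from 0.7 or 1.5 nM to 3 µM. Designed RNA switches had been transcribed on Illumina chips by stalled E. coli RNA polymerase. Apparent KD per design is the median over clusters of curves fitted to normalised cluster fluorescence.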

[1] = Eterna round: R95, input ligand: microRNA oligo, concentration not stated
[2] = input ligand: microRNA oligo, concentration not stated
[3] = Eterna round: R95, input ligand: FMN 200 uM
[4] = Eterna round: R95, input ligand: none

Row | Sequence | apparent KD of MS2 coat protein [1] [nM] | apparent KD of MS2 coat protein [2] [nM] | apparent KD of MS2 coat protein [3] [nM] | apparent KD of MS2 coat protein [4] [nM] | apparent KD of MS2 coat protein (input ligand: FMN 200 uM) [nM] | apparent KD of MS2 coat protein (input ligand: none) [nM]
1 | CUCAAACAUGAGGAUCACCCAUGUGUUGUCAUGGGAGGAUAUCCCAGUUCGUUGUCGUCGGGAGAAGGCCUAUGUC [× ×•×ª×• ×ž×“×™× ×” × ×—×ª-14] (puzzle: Same State 1) | 55.9 |  |  |  |  | 
2 | UUGUUUCGUCAUUAACAUGAGGAUCACCCAUGUAUCGUCUCAAAGGAUAUAUAUGCUUGUUUGCUAUAGAAGGUUGAUUGUUGU [JR_SSNG3_Sub093] (Eterna round: R96, puzzle: Same State NG 3) |  | 91.6 |  |  |  | 
3 | CGUCCGGCCUGUGCUGGCCGGUCGCUUGUACAUGAGGAUCACCCAUGUUCUUGUGCUGGCUUUUUGCUCGUCUUGUG [salish99_mir208a_020] (puzzle: Sensor for hsa-mir-208a) | 17.7 |  | 27.1 | 31 |  | 
4 | AACAAUCUAUCUGAGGAUAUCAUGAAAUAAACAUGAGGAUCACCCAUGUGCUGGAAAACUGCAUAUGAGAAGGCAGAUAGAUUGA [salish99_ss2_r3_037] (puzzle: Same State 2) | 237 |  | 32.1 | 395 |  | 
5 | AGUCUACGGUGACGUAGACAGUGGUGCGUACAUGAGGAUCACCCAUGUCAUGUGAGAGUUACUUGUUCGUCUUGAGC [SENSOR #4] (puzzle: Sensor for hsa-mir-208a) | 21.7 |  | 20.7 | 22.6 |  | 
6 | UACAAACGCGGAGGAUAUGGGCGAGGCGCAGAGGUCUGCGUCAAAACAUGAGGAUCACCCAUGUCCCAGAAGGCCGCGCAAACU [Anorra] (Eterna round: R96, puzzle: Same State NG 2) |  | 73.8 |  |  | 16.3 | 56.1
7 | GAGAGAGGAAGCGAGGAUAUCGUGUUGAGUACAUGAGGAUCACCCAUGUUGUAGGUAGAGGUAGGCGAGAAGGCGCAGGAGAAGA [JR_SS2_Sub0100] (puzzle: Same State 2) | 39.3 |  | 50.2 | 41 |  | 
8 | GGACGUCACUCAAACAAUUAAACAUGAGGAUCACCCAUGUCACAGGAUAUGGAUCCUAAUUGGAUCCAGAAGGGUGAGACGUCC [Fiskers NG3ss - 41] (Eterna round: R96, puzzle: Same State NG 3) |  | 193 |  |  |  | 
9 | CCCAGCGUUACAGGAUAUGGUGAGGAUCACCCACUAGAAGGGUAAACAUGUGCGUCGGACAUGAGGAUCACCCAUGUAGGGCGU (Eterna round: R96, puzzle: Same State NG 1) |  | 17.9 |  |  | 20.6 | 27
10 | UUGAAGAAUUAAGGAUAUUGAGUACAUAUGUUUAACAUGAGGAUCACCCAUGUGGGUUGCGGUAUCGAGAAGGUAAAUUACUAG [JL SSNG2 1.45] (Eterna round: R96, puzzle: Same State NG 2) |  | 76.1 |  |  | 91.2 | 155
11 | CUCAAAACAAGUUGCAGUGUUCGUCUUUAACAUGAGGAUCACCCAUGUAAUAGCCCAGUAGAAGCGCUCGGGCCACC [Ceedbeen] (puzzle: Sensor for hsa-mir-208a) | 26.4 |  | 34.5 | 31.9 |  | 
12 | ACAUGAGACUUAGGAUAUGUUGUACCUACAUGUGACAUGAGGAUCACCCAUGUGGUAAGUAUGAGACAGAAGGAAGAGAUAUGU [Equivalence 29 - Jieux - Same State NG 2] (Eterna round: R96, puzzle: Same State NG 2) |  | 26.3 |  |  | 7.53 | 54.7
13 | GCCGCGUUUCGCGCCUACAUGAGGAUCACCCAUGUUUGUAGGCAGGAUAUCGUUUGCUUUGCAGGCGAGAAGGGCUGUUGUGGC [salish99_SSNG3_R04_016] (Eterna round: R96, puzzle: Same State NG 3) |  | 39.1 |  |  | 43 | 46.5
14 | UUUUUGUUCCGAGGAUAUCCUUUUUUCUUACAUGAGGAUCACCCAUGUAAAGGGAUUGAGUUGUAGGAGAAGGCGGUUUUGUUU [JR_SSNG2_Sub061] (Eterna round: R96, puzzle: Same State NG 2) |  | 26.1 |  |  | 16.4 | 26.2
15 | UAGUACAUGCUUUUUGUCCGUCUUAGAUAACAUGAGGAUCACCCAUGUAAGGUGAAAGUUAUAUAGUUUAGGAAUAU [JR_SHM208A_Sub057] (puzzle: Sensor for hsa-mir-208a) | 323 |  | 136 | 178 |  | 
16 | UGGCUCAGACUAGGAUAUGAUCAUGGCGCUUCGGCGCAUACAUGAGGAUCACCCAUGUAAAGUGAUCAGAAGGAGUCUGAGCCA [SSNG2/7-C2] (Eterna round: R96, puzzle: Same State NG 2) |  | 11.9 |  |  | 14.5 | 15.8

Row | Sequence | apparent KD of MS2 coat protein [1] [nM] | apparent KD of MS2 coat protein [2] [nM] | apparent KD of MS2 coat protein [3] [nM] | apparent KD of MS2 coat protein [4] [nM] | apparent KD of MS2 coat protein (input ligand: FMN 200 uM) [nM] | apparent KD of MS2 coat protein (input ligand: none) [nM]
17 | UGAACCUUCACAGGAUAUCAUGCGAAAAUUGCGUGAGAAGGGUGAAUGUGGUGUUCAUAGUUGCACAUGAGGAUCACCCAUGUA [SameState NG1 #52] (Eterna round: R96, puzzle: Same State NG 1) |  | 135 |  |  | 107 | 156
18 | AUUUAACAAGCUUUUUGCUCGUCUUAUAAACAUGAGGAUCACCCAUGUAAUAGCGUGAGAGUAAUUUAAUAAAUAAU [JMF 84] (puzzle: Sensor for hsa-mir-208a) | 51.1 |  | 13.7 | 13.4 |  | 
19 | CCGAAAGGAGUAGGAUAUGUAGGAUAUUCCUACAUGAGGAUCACCCAUGUUCGCAUGGAAGAAGGACAGAAGGACACGGAAACG [pwkr ssNG2 2FMN + 1F5.14] (Eterna round: R96, puzzle: Same State NG 2) |  | 19 |  |  | 212 | 66.2
20 | GGUUUAGUCAGGUACAGUUGCACCUGAAAACAUGAGGAUCACCCAUGUUUGGGACAAGCUUUGCUCCUCGUCUUGCC [Ralausen] (puzzle: Sensor for hsa-mir-208a) | 77.6 |  | 101 | 152 |  | 
21 | GAGGCACAUGAGGAUCACCCAUGUGGGUAUAACAUAGGAUAUCACCAACAAAAUACCCGGUGAGAAGGAUGAUGCC [Ravevele] (puzzle: Same State 1) | 158 |  |  |  |  | 
22 | AGUCCAGCCUAAGCUGGACAAAAGCAUGUACAUGAGGAUCACCCAUGUUCAUGUACAAGCUUUUUGCAAGUCAAAAU [Mat - hsa-mir-208a - Mod of JL - 79] (Eterna round: R96, puzzle: Sensor for hsa-mir-208a) |  | 19.1 |  |  | 837 | 725
23 | AAGAUACAUGAGGAUCACCCAUGUCGAGAGAGACGAGGAUAUCUGAAUCGAUUAGAUUACGGAGAAGGCGUGAAAA [LROPPY Same State 1 - v07_deltaG=1.9] (Eterna round: R96, puzzle: Same State 1) |  | 22.2 |  |  | 19.6 | 29.7
24 | AUGCCAAAUCAAGGAUAUGGAUCCUUAUUGGAUCCAGAAGGUGGGACAUGAGGAUCACCCAUGUGGCAGUGGUCUAAUGACCAC [Fiskers NG1ss - 30] (Eterna round: R96, puzzle: Same State NG 1) |  | 185 |  |  | 61 | 281
25 | GGACGAGACGCAGGAUAUGCGAAGAAGAAGGAAGCAGAAGGGCGUGUGGGACGACAUGAGGAUCACCCAUGUUCUCUGCGAGGA [ssng1 b] (Eterna round: R96, puzzle: Same State NG 1) |  | 116 |  |  | 363 | 331
26 | UGUUGUUAAUUAGGAUAUGGACACAUGAGGAUCACCCAUGUAAUGUCGAUGCUAUGUGGACACGUUCAGAAGGAAUGGCUAACA [SameState NG2 #92] (Eterna round: R96, puzzle: Same State NG 2) |  | 53.2 |  |  | 29.7 | 58.4
27 | UGUUGUAUUACAGGAUAUCUAUUGUUUUAAUUUAGAGAAGGGUAUUCACAUGAGGAUCACCCAUGUAUAUACGAGGAAGUUGUG [JMF's solution 76] (Eterna round: R96, puzzle: Same State NG 1) |  | 40.6 |  |  |  | 
28 | UACAAUCUAUCUGAGGAUAUCAUGAAAAAAACAUGAGGAUCACCCAUGUGCAGGAAAACUGCAUAUGAGAAGGCAGAUAGAUUGC [salish99_SS2_r3_008] (puzzle: Same State 2) | 806 |  | 34.1 | 1320 |  | 
29 | AGUCCAGCCUGAGCUGGACAAAAGCAUGUACAUGAGGAUCACCCAUGUCAUGUACAAGCUUUUUGCUCAUCUUAAAA [Mat - hsa-mir-208a - Mod of JL - D11] (puzzle: Sensor for hsa-mir-208a) | 16.4 |  | 624 | 922 |  | 
30 | AGAGAAGAAGCUGAGGAUAUCGUAAGGAGGACAUGAGGAUCACCCAUGUGUGUGGAAUUGGAGGACGAGAAGGCAGAGGAGUGGG [JR_SS2_Sub056] (puzzle: Same State 2) | 28.3 |  | 25.1 | 27.8 |  | 
31 | CACAAUCUAUCUGAGGAUAUCAUGAAAAAAACAUGAGGAUCACCCAUGUGCAGGAAAACUGCAUAUGAGAAGGCAGAUAGAUUGC [salish99_SS2_r3_013] (puzzle: Same State 2) | 460 |  | 27.9 | 943 |  | 
32 | GCUCGUAUGAUGACCGACAUGAGGAUCACCCAUGUGUGUUGGUAGGAUAUCUAUAUUAAGGAUAUAGAGAAGGGCCGAACGAGC [SameState NG3 #16] (Eterna round: R96, puzzle: Same State NG 3) |  | 23.6 |  |  | 22.4 | 30.6

— the supplement of paper PMC9170038
